Measurements as given in publication PMC8938473 (2022).

Target: GST-BpfD-In (BpfD intracellular domains) (Shewanella putrefaciens CN32)
Experiment: MST

B1: His6-CRP (natural protein)
chain: MALIGKPKPDPTLEWFLSHCHIHKYPAKSTLIHAGEDSDTLYYIVKGSVAVLIKDEEGKEMILSYLNQGDFIGELGLFEEQAERTAWVRAKQACEIAEISYKKFKQLIQVNPEILMKLSAQMAYRLQSTSQKVGNLAFLDVAGRIAQTLLHLAKQPDAMTHPDGMQIKITRQEIGQIVGCSRETVGRILKMLEEQNLIQAHGKTIVVYGTR
modifications: labeled with NHS NT-647 dye (in the MST assay only)
  Kd: 4.9 µM
